# B1: GAT1: yeast (S. cerevisiae) glycerol-3-phosphate acyltransferase gene GAT1 expressed under GAL1 promoter as comparator (protein, listed as Saccharomyces cerevisiae)
# chain: MSAPAADHNAAKPIPHVPQASRRYKNSYNGFVYNIHTWLYDVSVFLFNILFTIFFREIKVRGAYNVPEVGVPTILVCAPHANQFIDPALVMSQTRLLKTSAGKSRSRMPCFVTAESSFKKRFISFFGHAMGGIPVPRIQDNLKPVDENLEIYAPDLKNHPEIIKGRSKNPQTTPVNFTKRFSAKSLLGLPDYLSNAQIKEIPDDETIILSSPFRTSKSKVVELLTNGTNFKYAEKIDNTETFQSVFDHLHTKGCVGIFPEGGSHDRPSLLPIKAGVAIMALGAVAADPTMKVAVVPCGLHYFHRNKFRSRAVLEYGEPIVVDGKYGEMYKDSPRETVSKLLKKITNSLFSVTENAPDYDTLMVIQAARRLYQPVKVRLPLPAIVEINRRLLFGYSKFKDDPRIIHLKKLVYDYNRKLDSVGLKDHQVMQLKTTKLEALRCFVTLIVRLIKFSVFAILSLPGSILFTPIFIICRVYSEKKAKEGLKKSLVKIKGTDLLATWKLIVALILAPILYVTYSILLIILARKQHYCRIWVPSNNAFIQFVYFYALLVFTTYSSLKTGEIGVDLFKSLRPLFVSIVYPGKKIEEIQTTRKNLSLELTAVCNDLGPLVFPDYDKLATEIFSKRDGYDVSSDAESSISRMSVQSRSRSSSIHSIGSLASNALSRVNSRGSLTDIPIFSDAKQGQWKSEGETSEDEDEFDEKNPAIVQTARSSDLNKENSRNTNISSKIASLVRQKREHEKKE
# System: yeast gat1 mutant
# Assay: Lipidomic analysis of phospholipids from yeast gat1 transformed with TpGPAT or GAT1, fed EPA or DHA
# Type: cell-based, Saccharomyces cerevisiae
# Details: tandem mass spectrometer lipidomics
# From the text: FIG. 4 graphically depicts the results of the lipidomic analysis (fatty acid composition) of the lipids from yeast gat1 mutants transformed with either TpGPAT1 or GAT1. Yeast cells expressing TpGPAT or yeast GAT1 were fed with EPA (20:5) or DHA (22:6) upon induction of the genes. Total lipids from the yeast cells were extracted and subjected to lipidomic analysis using a tandem mass spectrometer. The results are presented as the molar ratio of EPA- or DHA-containing phospholipids (PC, PE, PS, PI) in the total phospholipids.
# To further determine the role of TpGPAT in the incorporation of VLGPUFAs into glycerolipids, yeast gat1 strain transformed with TpGPAT or GAT1 under the control of the GAL1 promoter was grown in the presence of EPA (20:5) or DHA (22:6) upon induction of the genes. Phospholipids were extracted and subjected to lipidomic analysis using a tandem mass spectrometer (testing conducted by the Kansas Lipidomics Research Center). […] It was thus concluded that TpGPAT has a role in controlling PUFA accumulation in glycerolipid.
molecule,measurement,setting,value
B1,Molar percentage of DHA in phospholipids,yeast gat1 fed DHA (22:6),0.235%
same,Molar percentage of EPA in phospholipids,yeast gat1 fed EPA (20:5),2.025%
